Assay results: patent US20220213462A1

Target: peptide VWF73 (FRET substrate encompassing the ADAMTS13 recognition site of von Willebrand factor) (UniProt P04275)
Assay: cell-based or functional assay
Settings: scale: µL of normal human plasma equivalent per 200,000 cells

peptide VWF73 (FRET substrate encompassing the ADAMTS13 recognition site of von Willebrand factor), sequence (P04275 1596-1668 limits assumed): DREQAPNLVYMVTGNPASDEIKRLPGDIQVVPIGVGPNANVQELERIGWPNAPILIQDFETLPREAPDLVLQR

GPI-ADAMTS13 (AD5): first 745 amino acids of human ADAMTS13 fused to the DAF GPI anchor sequence (from UniProt Q76LX8 75-745) (enzyme)
VWF73 FRET assay, ADAMTS13 enzymatic activity (K562 cells): 10 | VWF73 FRET assay, ADAMTS13 enzymatic activity (iPSC-derived erythroid cells): 10
